Laboratory results: PMC9541529 (The Febs Journal, 2022)

B1: Hsp104 N‐terminal domain (NTD), wild type (domain or fragment)
chain: MNDQTQFTERALTILTLAQKLASDHQHPQLQPIHILAAFIETPEDGSVPYLQNLIEKGRYDYDLFKKVVNRNLVRIPQQQPAPAEITPSYALGKVLQDAAKIQKQQKDSFIAQDHILFALFNDSSIQQIFKEAQVDIEAIKQQALELRGNTR

How the values were obtained:
tau 2N4R = tau 2N4R (human, UniProt P10636-8 1-441); experiment: co-sedimentation
[1] = molecular target: T1, Sup35 NM prion protein (NM domains) (S. cerevisiae, UniProt P05453 1-253); experiment: NMR titration
T1 sequence: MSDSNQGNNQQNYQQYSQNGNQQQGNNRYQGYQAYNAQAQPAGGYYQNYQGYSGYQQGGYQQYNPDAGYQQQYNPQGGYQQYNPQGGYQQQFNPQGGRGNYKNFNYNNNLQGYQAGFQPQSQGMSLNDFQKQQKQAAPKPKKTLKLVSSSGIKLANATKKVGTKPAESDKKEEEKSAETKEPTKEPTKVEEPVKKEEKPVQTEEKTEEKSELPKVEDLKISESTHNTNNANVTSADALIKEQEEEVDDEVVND

[2] = molecular target: B1; experiment: NMR titration

Binder: B1
- binding result (tau 2N4R): binds
- binding result [1]: binds

B2: PhoA^349–471 (unfolded PhoA protein fragment, residues 349–471) (domain or fragment)
chain: DKQDHAANPCGQIGETVDLDEAVQRALEFAKKEGNTLVIVTADHAHASQIVAPDTKAPGLTQALNTKDGAVMVMSYGNSEEDSQEHTGSQLRIAAYGPHAANVVGLTDQTDLFYTMKAALGLK
- binding result [2]: binds

B3: α‐lactalbumin (natural protein)
chain: EQLTKCEVFRELKDLKGYGGVSLPEWVCTTFHTSGYDTQAIVQNNDSTEYGLFQINNKIWCKDDQNPHSSNICNISCDKFLDDDLTDDIMCVKKILDKVGINYWLAHKALCSEKLDQWLCEKL
- binding result [2]: binds
